From patent publication US20090298765A1 (Takeda / Millennium, published 2009) come the findings set out here.

Non-standard residues stand in square brackets, D forms with d. No end group written: not given here. Phe(4-F) = N[C@@H](Cc1ccc(F)cc1)C(=O)O; Arg(Me) = CNC(=N)NCCC[C@H](N)C(=O)O; d3Pal = N[C@H](Cc1cccnc1)C(=O)O; azaGly = NNC(=O)O

The target in experiment [1] is T1, human OT7T175 (metastin receptor) (human, UniProt Q969F8 1-398).
T1 construct: expressed on CHO cells; also called hOT7T175; hOT7T175-expressed CHO cells
The experiment can be described thus: competition with Cy-5 metastin (40-54) on hOT7T175-CHO cells, FMAT. As for the experimental part:
hOT7T175-Expressed CHO cells were cultured in MEM-α medium (nucleic acid-free) containing 10% dialyzed serum. The medium was removed and the adhered cells were washed with PBS. Then, PBS containing 5 mM EDTA was added and the cells were scraped from a flask with a cell scraper.
To each well of a 96-Well Black Clear Bottom Microplate (Applied Biosystems, Inc.), 10 μL of assay buffer containing 1% dimethylsulfoxide was added to examine total binding, 10 μL of 10 μM non-labeled peptide (having the same amino acid sequence as that of labeled one) solution diluted with assay buffer to examine non-specific binding, and 10 μL of a test compound diluted with assay buffer to examine a binding inhibition activity of the test compound, and furthermore, 90 μL each of the cell suspension was dispensed to each well. […] Specific binding is calculated as non-specific binding subtracted from total binding. The binding inhibition activity of a test compound is shown by a ratio of the value obtained by subtracting a measured value in presence of a test compound from the total binding to the specific binding.

In experiment [2] the target is T1, human OT7T175 (metastin receptor). Nature of the experiment: cell-based or functional assay.

T1 sequence (Q969F8 whole entry L364H): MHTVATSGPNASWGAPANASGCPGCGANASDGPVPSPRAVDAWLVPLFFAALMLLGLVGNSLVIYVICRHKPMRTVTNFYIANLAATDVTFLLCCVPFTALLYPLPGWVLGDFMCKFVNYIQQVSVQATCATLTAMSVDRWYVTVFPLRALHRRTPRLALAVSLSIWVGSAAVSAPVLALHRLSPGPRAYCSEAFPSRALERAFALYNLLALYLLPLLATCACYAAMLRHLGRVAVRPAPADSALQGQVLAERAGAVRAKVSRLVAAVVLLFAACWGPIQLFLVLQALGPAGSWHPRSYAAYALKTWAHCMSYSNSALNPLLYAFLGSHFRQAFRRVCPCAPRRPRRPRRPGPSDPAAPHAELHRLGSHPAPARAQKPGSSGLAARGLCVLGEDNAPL

B1: [D-Ala1,AzaGly7,Arg(Me)9]MS10 (peptide)
peptide: [dA]NWNSF[azaGly]L[Arg(Me)]F-NH2
modifications: N-terminus assumed
SMILES: CNC(=N)NCCC[C@H](NC(=O)[C@H](CC(C)C)NC(=O)NNC(=O)[C@H](Cc1ccccc1)NC(=O)[C@H](CO)NC(=O)[C@H](CC(N)=O)NC(=O)[C@H](Cc1c[nH]c2ccccc12)NC(=O)[C@H](CC(N)=O)NC(=O)[C@@H](C)N)C(=O)N[C@@H](Cc1ccccc1)C(N)=O
notes: also called Compound No. 259
The molecule B1 registered an IC50 in experiment [1] of 250 nM. The “Ca ion level-increasing activity (FLIPR)” value in experiment [2] is 1 x Metastin (1-54).

B2: [D-Tyr1,D-Asn2,Thr3,AzaGly7,Arg(Me)9]MS10 (peptide)
peptide: [dY][dN]TNSF[azaGly]L[Arg(Me)]F-NH2
notes: also called Compound No. 284
Take B2: the half-inhibitory concentration (IC50) in experiment [1] was 34 nM. Also, in experiment [2], the “Ca ion level-increasing activity (FLIPR)” value was 1 x Metastin (1-54).

B3: [D-Tyr1,D-Asn2,Phe3,AzaGly7,Arg(Me)9]MS10 (peptide)
peptide: [dY][dN]FNSF[azaGly]L[Arg(Me)]F-NH2
notes: also called Compound No. 257
In experiment [1], B3 had an IC50 of 40 nM. For the same molecule, the “Ca ion level-increasing activity (FLIPR)” value in experiment [2] is 3 x Metastin (1-54).

B4: [D-Tyr1,D-Asn2,Thr3,AzaGly7,Arg(Me)9,Phe(4F)10]MS10 (peptide)
peptide: [dY][dN]TNSF[azaGly]L[Arg(Me)][Phe(4-F)]-NH2
modifications: N-terminus assumed
SMILES: CNC(=N)NCCC[C@H](NC(=O)[C@H](CC(C)C)NC(=O)NNC(=O)[C@H](Cc1ccccc1)NC(=O)[C@H](CO)NC(=O)[C@H](CC(N)=O)NC(=O)[C@@H](NC(=O)[C@@H](CC(N)=O)NC(=O)[C@H](N)Cc1ccc(O)cc1)[C@@H](C)O)C(=O)N[C@@H](Cc1ccc(F)cc1)C(N)=O
notes: also called Compound No. 316
As to B4, the IC50 in experiment [1] came to 26 nM. In experiment [2], the “Ca ion level-increasing activity (FLIPR)” value was 1 x Metastin (1-54).

B5: [D-Tyr1,D-His2,AzaGly7,Arg(Me)9]MS10 (peptide)
peptide: [dY][dH]WNSF[azaGly]L[Arg(Me)]F-NH2
modifications: N-terminus assumed
SMILES: CNC(=N)NCCC[C@H](NC(=O)[C@H](CC(C)C)NC(=O)NNC(=O)[C@H](Cc1ccccc1)NC(=O)[C@H](CO)NC(=O)[C@H](CC(N)=O)NC(=O)[C@H](Cc1c[nH]c2ccccc12)NC(=O)[C@@H](Cc1c[nH]cn1)NC(=O)[C@H](N)Cc1ccc(O)cc1)C(=O)N[C@@H](Cc1ccccc1)C(N)=O
notes: also called Compound No. 288
In experiment [1], B5 returned an IC50 of 0.072 nM. In addition, the “Ca ion level-increasing activity (FLIPR)” value in experiment [2] was 1 x Metastin (1-54).

B6: [D-Tyr1,D-Ser2,AzaGly7,Arg(Me)9]MS10 (peptide)
peptide: [dY][dS]WNSF[azaGly]L[Arg(Me)]F-NH2
modifications: N-terminus assumed
SMILES: CNC(=N)NCCC[C@H](NC(=O)[C@H](CC(C)C)NC(=O)NNC(=O)[C@H](Cc1ccccc1)NC(=O)[C@H](CO)NC(=O)[C@H](CC(N)=O)NC(=O)[C@H](Cc1c[nH]c2ccccc12)NC(=O)[C@@H](CO)NC(=O)[C@H](N)Cc1ccc(O)cc1)C(=O)N[C@@H](Cc1ccccc1)C(N)=O
notes: also called Compound No. 287
B6 showed an IC50 in experiment [1] of 2.3 nM. Also, the “Ca ion level-increasing activity (FLIPR)” value in experiment [2] is 2 x Metastin (1-54).

B7: des(1)-[D-Pya(3)2,Phe3,AzaGly7,Arg(Me)9]MS10 (peptide)
peptide: [d3Pal]FNSF[azaGly]L[Arg(Me)]F-NH2
modifications: N-terminus assumed
SMILES: CNC(=N)NCCC[C@H](NC(=O)[C@H](CC(C)C)NC(=O)NNC(=O)[C@H](Cc1ccccc1)NC(=O)[C@H](CO)NC(=O)[C@H](CC(N)=O)NC(=O)[C@H](Cc1ccccc1)NC(=O)[C@H](N)Cc1cccnc1)C(=O)N[C@@H](Cc1ccccc1)C(N)=O
notes: also called Compound No. 256
In experiment [1], B7 registered a 50% inhibitory concentration (IC50) of 22 nM. In addition, the “Ca ion level-increasing activity (FLIPR)” value in experiment [2] is 1 x Metastin (1-54).

B8: des(1)-[D-Pya(3)2,AzaGly7,Arg(Me)9]MS10 (peptide)
peptide: [d3Pal]WNSF[azaGly]L[Arg(Me)]F-NH2
notes: also called Compound No. 289; [D-Pya(3)2,AzaGly7,Arg(Me)9]MS10-(2-10)
Regarding B8, the IC50 in experiment [1] stood at 8.4 nM. Also, the “Ca ion level-increasing activity (FLIPR)” value in experiment [2] is 1 x Metastin (1-54).
